Experimental data published in publication PMC4615758 (RNA Biology, 2014).

Biological target: the molecule itself
Assay: native gel or EMSA

B1: recombinant full size LARP6 purified from E. coli (natural protein)
chain: MAQSGGEARPGPKTAVQIRVAIQEAEDVDELEDEEEGAETRGAGDPARYLSPGWGSASEEEPSRGHSGTTASGGENEREDLEQEWKPPDEELIKKLVDQIEFYFSDENLEKDAFLLKHVRRNKLGYVSVKLLTSFKKVKHLTRDWRTTAHALKYSVVLELNEDHRKVRRTTPVPLFPNENLPSKMLLVYDLYLSPKLWALATPQKNGRVQEKVMEHLLKLFGTFGVISSVRILKPGRELPPDIRRISSRYSQVGTQECAIVEFEEVEAAIKAHEFMITESQGKENMKAVLIGMKPPKKKPAKDKNHDEEPTASIHLNKSLNKRVEELQYMGDESSANSSSDPESNPTSPMAGRRHAATNKLSPSGHQNLFLSPNASPCTSPWSSPLAQRKGVSRKSPLAEEGRLNCSTSPEIFRKCMDYSSDSSVTPSGSPWVRRRRQAEMGTQEKSPGTSPLLSRKMQTADGLPVGVLRLPRGPDNTRGFHGHERSRACV
binding result: binds
